Experimental data as given in PMC8222386.

Assays:
[1] = target: iLight (evolved photosensory core module of Idiomarina sp. bacterial phytochrome IsPadC) (Idiomarina sp. A28L)
[2] = target: iLight (evolved photosensory core module of Idiomarina sp. bacterial phytochrome IsPadC) (Idiomarina sp. A28L); test: native gel or EMSA + SEC; Pr state: purified protein illuminated with 780/30 nm light (2 mW/cm2, 0.5 h) in 20 mM HEPES pH 7.7, 300 mM NaCl; native PAGE 4-20% gradient gel, 20 ug per lane, run in darkness, ZnCl2 staining; SEC on HiLoad 16/600 Superdex 200 in darkness, protein at 1.9 mg/ml
[3] = target: iLight (evolved photosensory core module of Idiomarina sp. bacterial phytochrome IsPadC) (Idiomarina sp. A28L); remark: listed apart in the source
[4] = target: iLight (evolved photosensory core module of Idiomarina sp. bacterial phytochrome IsPadC) (Idiomarina sp. A28L); test: native gel or EMSA + SEC; Pfr state: purified protein illuminated with 660/15 nm light (2 mW/cm2, 0.5 h) in 20 mM HEPES pH 7.7, 300 mM NaCl; native PAGE 4-20% gradient gel, 20 ug per lane, run in darkness, ZnCl2 staining; SEC on HiLoad 16/600 Superdex 200 in darkness, protein at 1.9 mg/ml; step: dimers to tetramer
[5] = target: iLight (evolved photosensory core module of Idiomarina sp. bacterial phytochrome IsPadC) (Idiomarina sp. A28L); remark: listed apart in the source
[6] = target: wild-type IsPadC-PCM (photosensory core module of Idiomarina sp. A28L phytochrome-activated diguanylyl cyclase) (Idiomarina sp. A28L); test: native gel or EMSA; native PAGE of Fig. 3f, 20 ug per lane, ZnCl2 staining for bound biliverdin; illumination state not told for this statement; step: monomers to dimer

## iLight (evolved photosensory core module of Idiomarina sp. bacterial phytochrome IsPadC) (domain or fragment)
[1]
  SEAP reporter production in HeLa cells with NLS-Gal4-DBD-iLight-VP16 after 48 h of 660 nm light against darkness, exogenous biliverdin from none (~20.5-fold) to 10 uM: 65 to 70 fold
  time course of SEAP reporter production in HeLa cells with NLS-Gal4-DBD-iLight-VP16, 660 nm light against darkness, 24 h (~19-fold) to 72 h: 70 fold
[2]
  stoichiometry N: 2
[3]
  RLuc8 reporter signal in livers of mice co-transfected with NLS-Gal4-DBD-iLight-VP16 and pG12-RLuc8, 24 h of 660 nm light against darkness: 6 fold
[4]
  stoichiometry N: 4
[5]
  repression of the ColE-driven mCherry reporter in E. coli by LexA408-DBD-iLight-msfGFP, 660 nm light against darkness: 115 fold

## wild-type IsPadC-PCM (photosensory core module of Idiomarina sp. A28L phytochrome-activated diguanylyl cyclase) (domain or fragment)
[6]
  stoichiometry N: 2
